Results from article PMC2275139.
Positions count from the first letter of the chain named. Where two headings read alike, the source gives them in different places.

How the values were obtained:
IcaR wild type [1] = target: T1, IcaR wild type (Staphylococcus epidermidis ATCC 35984 …, UniProt Q5HKQ1 1-185); assay: EMSA
T1 sequence: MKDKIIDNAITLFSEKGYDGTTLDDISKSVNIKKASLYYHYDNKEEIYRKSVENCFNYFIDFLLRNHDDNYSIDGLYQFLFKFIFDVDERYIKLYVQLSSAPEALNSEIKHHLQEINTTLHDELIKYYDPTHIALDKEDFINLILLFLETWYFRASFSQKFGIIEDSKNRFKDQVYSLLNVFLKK

IcaR wild type [2] = target: T1, IcaR wild type; assay: EMSA; remark: listed apart in the source
IcaR K33E = target: T2, IcaR K33E (Staphylococcus epidermidis ATCC 35984 …, UniProt Q5HKQ1 1-185, K33E); assay: ITC
T2 sequence: T1 sequence with K33E

B1: 24E (dsDNA)
DNA 1: AACCTAACTAACGAAAGGTAGGTG
DNA 2: CACCTACCTTTCGTTAGTTAGGTT
**Q.** Does B1 bind (IcaR wild type [1])?
**A.** Result: binds

B2: 16 bp probe (same center as 28E) (dsDNA)
DNA 1: TAACTAACGAAAGGTA
DNA 2: TACCTTTCGTTAGTTA
**Q.** Does B2 bind (IcaR wild type [2])?
**A.** Result: no binding

B3: 28E (dsDNA)
DNA 1: ACAACCTAACTAACGAAAGGTAGGTGAA
DNA 2: TTCACCTACCTTTCGTTAGTTAGGTTGT
**Q.** Does B3 bind (IcaR K33E)?
**A.** Result: no binding
